The target of the test is human type 1 insulin-like growth factor receptor (human) (UniProt P08069). As to the kind of experiment: competitive displacement assay, plate capture of solubilized receptor (tracer for IGF-1R not stated).

“KP-insulin ([Lys^B28, Pro^B29]-insulin, insulin Lispro) (ligand; other documents disagree on this pair)” had a Kd of 5 nM.

For the origin of these results see patent US20190382463A1.
